The source of these data is article PMC6508626.

Holding throughout (test): co-IP
The target of experiment [1] is Carboxy-terminally HA-tagged wildtype NS1 from pTM_NS1_HA (Dengue virus 2 (strain 16681)) (UniProt P29990).
The target of experiment [2] is HA-tagged NS1 D136A (Dengue virus 2 (strain 16681)).
The target of experiment [3] is HA-tagged NS1 D197A (Dengue virus 2 (strain 16681)).
The target of experiment [4] is HA-tagged NS1 E334A (Dengue virus 2 (strain 16681)).
Experiment [5] concerns the target HA-tagged NS1 G161A (Dengue virus 2 (strain 16681)).
For experiment [6], the target named is HA-tagged NS1 K189A (Dengue virus 2 (strain 16681)).
Experiment [7] has as its target HA-tagged NS1 L153A (Dengue virus 2 (strain 16681)).
The target in experiment [8] is HA-tagged NS1 P319A (Dengue virus 2 (strain 16681)).
Experiment [9] has as its target HA-tagged NS1 P320A (Dengue virus 2 (strain 16681)).
Experiment [10] addresses HA-tagged NS1 R336A (Dengue virus 2 (strain 16681)).
For experiment [11], the target named is HA-tagged NS1 R62A (Dengue virus 2 (strain 16681)).
Experiment [12] deals with HA-tagged NS1 S252A (Dengue virus 2 (strain 16681)).
For experiment [13], the target named is HA-tagged NS1 T317A (Dengue virus 2 (strain 16681)).
For experiment [14], the target named is HA-tagged NS1 W150A (Dengue virus 2 (strain 16681)).
Experiment [15] concerns the target HA-tagged NS1 W168A (Dengue virus 2 (strain 16681)).
The target of experiment [16] is HA-tagged NS1 W311A (Dengue virus 2 (strain 16681)).
In experiment [17] the target is HA-tagged NS1 W8A (Dengue virus 2 (strain 16681)).
Experiment [18] deals with HA-tagged NS1 Y158A (Dengue virus 2 (strain 16681)).
The target in experiment [19] is HA-tagged NS1 Y32A (Dengue virus 2 (strain 16681)).

Take “NS4A-2K-4B polyprotein from pTM_NS4A-2K-4B (natural protein)”: the NS1—NS4A-2K-4B interaction (fold of WT) was 1 fold of WT in [1]; 0.21 fold of WT in experiment [2]; 4.09 fold of WT in experiment [3]; 0.18 fold of WT in [4]; 0.07 fold of WT in experiment [5]; 1.33 fold of WT in experiment [6]. In addition, the NS1—NS4A-2K-4B interaction (fold of WT) is 1.67 fold of WT in experiment [7]; 0.37 fold of WT in experiment [8]; 0.86 fold of WT in experiment [9]; 0.26 fold of WT in experiment [10]; 3.97 fold of WT in experiment [11]; 3.18 fold of WT in experiment [12]. Besides, the NS1—NS4A-2K-4B interaction (fold of WT) in experiment [13] is 2.08 fold of WT; in experiment [14], 0.38 fold of WT; in experiment [15] it was 0.02 fold of WT; in experiment [16] it was 0.31 fold of WT; in experiment [17], 0.99 fold of WT; in [18], 3.01 fold of WT. Further, in experiment [19], the NS1—NS4A-2K-4B interaction (fold of WT) was 0.31 fold of WT.
